The results in this text go back to the supplement of paper PMC9732359.

± gives the uncertainty stated by the source.

The data set in a line: protein stability index of a GFP-peptide fusion (yeast GPS) (PSI 1-4); higher = more stable; sorted into four equal gates, so the index is relative within each strain. Summed up:
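For each peptide, the protein stability index sums the read frequency in every gate after multiplying it by the gate number. Read frequencies came from plasmids that were PCR-amplified from each gate and Illumina-sequenced, with reads assigned to strains by barcodes. The gates were four equal bins of GFP/Cherry fluorescence ratio applied to mid-log yeast in leucine-free medium carrying a pooled library of tiled 17-residue yeast protein peptides fused downstream of GFP on a Cherry-expressing plasmid.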

In the case of RALSIFSPDGHIFQVEY [PRE6], the protein stability index runs as follows: (doa10∆) 2.97 ± 0.051; (pdr5∆) 2.98 ± 0.05; (san1∆) 3.04 ± 0.032; (ubr1∆) 3.1 ± 0.032.

Take MAQENSMERKVQGAAPW [MCD1]: the protein stability index reads like this: (doa10∆) 3.35 ± 0.26; (pdr5∆) 2.92 ± 0.11.

With KERNSLKKLKAMNDACY [BRR2], the protein stability index runs as follows: (doa10∆) 3.18 ± 0.086; (pdr5∆) 3.16 ± 0.059; (san1∆) 2.98 ± 0.051; (ubr1∆) 3.05 ± 0.06.

As for AILQKSLKNVTEKNREI [YIL149C/MLP2], the protein stability index came out at 3.01 ± 0.051 (doa10∆), 2.79 ± 0.064 (pdr5∆), 3.05 ± 0.032 (san1∆) and 2.96 ± 0.036 (ubr1∆).

In the case of KIHLYEKKLEDYCRILS [YGL172W/NUP49], the protein stability index by setting is: (doa10∆) 1.54 ± 0.11; (pdr5∆) 2.34 ± 0.12; (san1∆) 2.3 ± 0.13; (ubr1∆) 1.78 ± 0.19.

With EDAKLKTDLELLVERLK [RPN1], the protein stability index by setting is: (doa10∆) 1.24 ± 0.074; (pdr5∆) 1.19 ± 0.049; (san1∆) 1.29 ± 0.14; (ubr1∆) 1.51 ± 0.073.

For the sequence PEYGRIIASASYDKTVK [YGL100W/SEH1], the protein stability index is 2.27 ± 0.079 (doa10∆), 2.28 ± 0.082 (pdr5∆), 3.03 ± 0.087 (san1∆) and 2.11 ± 0.056 (ubr1∆).

With LRVEHIKHSKCRQEFLE [RPL21A], the protein stability index was 1.59 ± 0.21 (doa10∆), 2.43 ± 0.16 (pdr5∆), 1.17 ± 0.18 (san1∆) and 1.31 ± 0.11 (ubr1∆).

In the case of LNTKSIQIDEETENSES [MCD1], the protein stability index is, setting by setting: (doa10∆) 2.16 ± 0.096; (pdr5∆) 2.52 ± 0.11; (san1∆) 2.87 ± 0.1; (ubr1∆) 2.92 ± 0.1.

Turning to DLKKLNLNVYIQVFEKP [CDC53], the protein stability index turned out to be 2.23 ± 0.11 (doa10∆), 2.5 ± 0.17 (pdr5∆), 2.33 ± 0.27 (san1∆) and 2.78 ± 0.09 (ubr1∆).

Take LLSEHDDHNGEVWSVSW [YGL100W/SEH1]: the protein stability index by setting is: (doa10∆) 2.62 ± 0.068; (pdr5∆) 2.8 ± 0.069; (san1∆) 2.36 ± 0.079; (ubr1∆) 2.66 ± 0.1.

Turning to FKNMGNTCYLNATLQAL [UBP6], the protein stability index by setting is: (doa10∆) 1.8 ± 0.083; (pdr5∆) 1.92 ± 0.083; (san1∆) 1.55 ± 0.12; (ubr1∆) 1.83 ± 0.071.

As to QEVTNEAPFLTSGTSSE [GAL11], the protein stability index amounted to 3.35 ± 0.079 (doa10∆), 3.35 ± 0.08 (pdr5∆), 3.42 ± 0.067 (san1∆) and 3.13 ± 0.073 (ubr1∆).

On to VTQNVLGLEYIIRLLPI [SRB8], for which the protein stability index runs as follows: (doa10∆) 1.55 ± 0.12; (pdr5∆) 1.68 ± 0.14; (san1∆) 1.39 ± 0.25; (ubr1∆) 1.63 ± 0.21.

On to TIKILPENTAMFNPLHE [YMR129W/POM152], for which the protein stability index is, setting by setting: (doa10∆) 2.42 ± 0.064; (pdr5∆) 2.36 ± 0.053; (san1∆) 2.36 ± 0.058; (ubr1∆) 2.5 ± 0.05.

For the sequence FFYLRISKKLQFSYLSS [PCI8], the protein stability index by setting is: (doa10∆) 1.22 ± 0.076; (pdr5∆) 1.24 ± 0.059; (san1∆) 1.24 ± 0.11; (ubr1∆) 1.33 ± 0.044.

VNGSITDQLIQNIETRQ [NUT1] had a protein stability index (doa10∆) of 3.22 ± 0.079, a protein stability index (pdr5∆) of 3.01 ± 0.092, a protein stability index (san1∆) of 3.05 ± 0.071 and a protein stability index (ubr1∆) of 3.15 ± 0.042.

Take LQKEKELHKEGTISKLE [SMC2]: the protein stability index by setting is: (doa10∆) 2.89 ± 0.075; (pdr5∆) 3.08 ± 0.08; (san1∆) 1.83 ± 0.06; (ubr1∆) 2.5 ± 0.05.

Turning to ATFLKDDLPYYVNALAD [QCR2], the protein stability index reads like this: (doa10∆) 2.37 ± 0.047; (pdr5∆) 2.21 ± 0.046; (san1∆) 2.27 ± 0.053; (ubr1∆) 2.35 ± 0.032.

Take AKPDARTQAGDIVSIDI [MTW1]: the protein stability index runs as follows: (doa10∆) 3.27 ± 0.13; (pdr5∆) 3.53 ± 0.13; (san1∆) 3.55 ± 0.091; (ubr1∆) 3.64 ± 0.098.

For the sequence SKMSDESFAELMTKLNS [RPC17], the protein stability index is 3.29 ± 0.12 (doa10∆), 3.67 ± 0.12 (pdr5∆), 3.09 ± 0.098 (san1∆) and 3.37 ± 0.12 (ubr1∆).

For DEYLGSHTDQPANVLLV [NNF1], the protein stability index is, setting by setting: (doa10∆) 3.57 ± 0.25; (ubr1∆) 2.92 ± 0.13.

LHGLTPTAKDVEVIKQL [GAL11]: the protein stability index was found to be 3.08 ± 0.078 (doa10∆), 2.64 ± 0.13 (pdr5∆) and 2.26 ± 0.078 (ubr1∆).

In the case of HFFSKSCSFFAKLSDTL [NUT1], the protein stability index came out at 2.06 ± 0.047 (doa10∆), 1.77 ± 0.041 (pdr5∆), 1.69 ± 0.085 (san1∆) and 1.95 ± 0.035 (ubr1∆).

In the case of SETREKELESIDVLLEQ [RPB4], the protein stability index (doa10∆) worked out at 3.04 ± 0.13, the protein stability index (pdr5∆) amounted to 3.11 ± 0.096, the protein stability index (san1∆) came to 2.86 ± 0.11 and the protein stability index (ubr1∆) amounted to 3 ± 0.095.

With MLETAGFSMNNPYNIVP [SMC3], the protein stability index is, setting by setting: (doa10∆) 3.17 ± 0.11; (pdr5∆) 3.18 ± 0.09; (san1∆) 3.19 ± 0.07; (ubr1∆) 3.09 ± 0.051.

For the sequence GWSLVGRILQNLLHSYM [YML103C/NUP188], the protein stability index was found to be 1.85 ± 0.087 (doa10∆), 1.18 ± 0.06 (pdr5∆), 1.18 ± 0.092 (san1∆) and 1.05 ± 0.03 (ubr1∆).

On to SKKGSLENNIREFPEYF [RPL10], for which the protein stability index by setting is: (doa10∆) 2.95 ± 0.12; (pdr5∆) 3.23 ± 0.084; (san1∆) 3.29 ± 0.057; (ubr1∆) 3.36 ± 0.069.

For ADVLAMAKVEVNLAAIP [RIP1], the protein stability index runs as follows: (doa10∆) 1.84 ± 0.12; (pdr5∆) 1.99 ± 0.13; (san1∆) 1.82 ± 0.22; (ubr1∆) 2.05 ± 0.077.

Regarding FMDVITLDATNENFRLV [RPS4A], the protein stability index runs as follows: (pdr5∆) 3.44 ± 0.28; (san1∆) 2.72 ± 0.25; (ubr1∆) 3 ± 0.18.

In the case of VMEIGKDAEYLRNYLTP [PUP1], the protein stability index by setting is: (doa10∆) 2.85 ± 0.076; (pdr5∆) 2.85 ± 0.096; (san1∆) 2.77 ± 0.086; (ubr1∆) 2.85 ± 0.12.

Consider LQSIVNEISRNGTMINE [PCI8], for which the protein stability index was determined as 2.93 ± 0.12 (doa10∆), 2.64 ± 0.13 (pdr5∆), 2.67 ± 0.13 (san1∆) and 2.9 ± 0.12 (ubr1∆).

As for AEEEEESDDDMGFGLFD [RPP0], the protein stability index runs as follows: (doa10∆) 3.36 ± 0.09; (pdr5∆) 2.96 ± 0.12; (san1∆) 3.24 ± 0.046; (ubr1∆) 3.25 ± 0.065.

For the sequence ENSEPPALESSPVTGDN [SNF2], the protein stability index by setting is: (doa10∆) 3.3 ± 0.075; (pdr5∆) 3.24 ± 0.073; (san1∆) 3.19 ± 0.067; (ubr1∆) 3.22 ± 0.062.

With LAGKRGPKSGSTMGTPT [PGD1], the protein stability index is, setting by setting: (doa10∆) 3.35 ± 0.061; (pdr5∆) 2.95 ± 0.05; (san1∆) 2.6 ± 0.096; (ubr1∆) 3.19 ± 0.046.

Turning to KMIDFATLSKLKKKYQI [SIR3], the protein stability index reads like this: (doa10∆) 2.9 ± 0.11; (pdr5∆) 3.35 ± 0.1; (san1∆) 3.53 ± 0.051; (ubr1∆) 3.47 ± 0.048.

In the case of NMTTIADRNDDDEGSFA [SRB6], the protein stability index is 3.72 ± 0.17 (doa10∆), 3.4 ± 0.3 (pdr5∆), 3.33 ± 0.094 (san1∆) and 3.44 ± 0.079 (ubr1∆).

For the sequence GIIEPSLKALASKYNCD [RPL40A], the protein stability index by setting is: (doa10∆) 3.44 ± 0.17; (pdr5∆) 3.27 ± 0.23; (san1∆) 3.09 ± 0.085; (ubr1∆) 3.19 ± 0.2.
